Assays:
OX40-Fc = target: T1, OX40-Fc (Mus musculus, UniProt P47741); set-up: method as in PMID 36450532, PMID 37371066; settings: previous studies; ref [23], [24]; cited from earlier work
T1 construct: made in house
T1 sequence (P47741 20-211 limits assumed): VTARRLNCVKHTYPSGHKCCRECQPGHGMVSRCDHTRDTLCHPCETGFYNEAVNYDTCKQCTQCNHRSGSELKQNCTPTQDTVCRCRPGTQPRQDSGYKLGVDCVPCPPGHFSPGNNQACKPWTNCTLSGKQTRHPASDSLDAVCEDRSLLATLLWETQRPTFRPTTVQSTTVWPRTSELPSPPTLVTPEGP

[1] = test system: antigen-specific T cell responses of draining lymph node cells; assay: Antigen recall responses of dLN cells from TNP-KLH/CFA-immunized mice (cytokine ELISA, MTT proliferation); assay type: in vivo, C57BL/6 mice; settings: 20 µg i.p. on days 1 and 3, TNP-KLH/CFA day 0, dLN day 7, KLH recall 3 days
From the text: The following reagents were used for the measurement of cytokines from T cells: anti-IL-2 (JES6-1A12, 503701, BioLegend, San Diego, CA, U.S.A.) capture antibody, biotin-anti-IL-2 (JES6-5H4, 503803, BioLegend) detection antibody, anti-IFN-γ (R4-6A2, 505702, BioLegend) capture antibody, biotin-anti-IFN-γ (XMG1.2, 505804, BioLegend) detection antibody, anti-IL-4 (11B11, 504101, BioLegend) capture antibody, biotin-anti-IL-4 (BVD6-24G2, 504201, BioLegend) detection antibody, anti-IL-17A (TC11-18H10.1, 506901, BioLegend) capture antibody, biotin-anti-IL-17A (TC11-8H4, 507001, BioLegend) detection antibody, HRP streptavidin (405210, BioLegend), and 3,3’,5,5’-tetramethylbenzidine (TMB, 421101, BioLegend). The absorbance was measured at 450 nm or 620 nm using a FilterMax F5 (Molecular Devices, San Jose, CA, U.S.A.).
Groups of C57BL/6 mice from both male and female mice aged between 5 and 15 weeks were immunized subcutaneously at the footpad with 100 µg of 2,4,6-trinitrophenyl-conjugated keyhole limpet hemocyanin (TNP-KLH) emulsified in complete Freund’s adjuvant (CFA) (F5881, Merck) on day 0. Recombinant proteins in PBS were injected intraperitoneally on days 1 and 3. […] Cell viability on day 3 was assessed with a 3-(4,5-dimethylthiazol-2-yl)-2,5-diphenyl-tetrazolium (MTT) (M2128, Merck) assay.

| Substance | specific interaction with OX40 (OX40-Fc) | antigen-specific T cell responses (recall IFN-γ, IL-17, IL-4 production and proliferation of dLN cells) [1] |
| --- | --- | --- |
| MBL-OX40L: Fusion protein: PA peptide tag, collagen-like domain of mannose-binding lectin, extracellular TNF homology domain of mouse OX40L | specifically interact with OX40 | – |
| Fc-MBL-OX40L: Fusion protein: human IgG1 Fc (hinge, CH2, CH3), PA, MBL collagen-like domain, OX40L THD | – | failed to effectively stimulate in vivo T cell responses |

Reference: article PMC11757143, “Generation and characterization of OX40-ligand fusion protein that agonizes OX40 on T-Lymphocytes” (Frontiers in Immunology, 2025)
